The record followed here is patent US20240294624A1, “ANTI-ERYTHROPOIETIN ANTIBODY” (ANDREMACON S.R.L., priority 2021, published 2024).

As usually defined, the Kd is the concentration at which binding is half-saturated.

One data set deals with GBM-CSC cell line. The experiment in a line: MTT cell viability assay. In kind it is cell-based, human. The conditions noted are these: 96 hours, anti-EPO (C4) 6 μg/ml, TMZ 100 μM, FTY720 100 nM. Here is the method:
C. Glioblastoma cancer stem cell commercial line (Glioblastoma stem cell line, GBM-CSCs). Anti-EPO treatments were performed on GBM-CSCs, a commercial glioblastoma cancer cell line by CelProgen. As reported in the datasheet, GBM-CSCs have been isolated from human brain cancer tissue. GBM-CSCs were maintained in Celprogen's human glioblastoma cancer stem cell (GBM) complete growth medium and subcultured every 24 to 48 hours on a specific extra-cellular matrix.
A general note: Formazan colour is commonly taken as a measure of viable cells.

The test system of the next data set is SHSY-5Y. The experiment in a line: MTT cell viability assay. In kind it is cell-based, human. The settings on record: 96 hours, 6 μg/ml. From the text: K. Neuroblastoma cell line (SHSY-5Y) line is a cell line isolated from a bone marrow biopsy taken from a patient with neuroblastoma. SHSY cells are often used as in vitro models of oncological pathology and neuronal differentiation.

For a further data set, the system named is HOC84. The experiment in a line: MTT cell viability assay. In kind it is cell-based, human. The conditions noted are these: 96 hours, 6 μg/ml. From the text:
N. Human ovarian Cell (HOC) cultured in stem cell condition. In particular, HOC84 stem cells were obtained by digestion and cell isolation form a patient-derived xenograft (PDX) model from a high grade serous epithelial ovarian cancer, obtained by serial passages in nude mice.

The next data set relates to A549. The experiment in a line: MTT cell viability assay. In kind it is cell-based, human. The conditions noted are these: 96 hours, 6 μg/ml. From the text: J. Lung carcinoma cell line (A549): human lung cancer cells used for drug efficacy screening, biochemical mechanisms and alveolar differentiation;
Another data set has as its target T1, murine EPO (mEPO) (Mus musculus, UniProt P07321).
T1 sequence (P07321 27-192): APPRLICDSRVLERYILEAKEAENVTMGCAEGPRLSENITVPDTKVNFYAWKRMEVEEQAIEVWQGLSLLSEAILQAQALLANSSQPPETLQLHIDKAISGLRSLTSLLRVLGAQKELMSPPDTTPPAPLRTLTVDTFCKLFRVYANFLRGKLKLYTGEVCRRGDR
The experiment in a line: SPR binding kinetics. The conditions noted are these: m-EPO. As for the experimental part:
FIG. 26A SPR technology can allow to determine the plasma and tissue concentrations of antibody, on the basis of an appropriate calibration curve. FIG. 26B Blood samples were collected from the retroorbital plexus under isoflurane anesthesia at 4, 24, 48, 72, 120, and 168 h from treatment.
SPR is a technology widely used to study in real time the interaction between two unlabeled molecules, one (the “ligand”) immobilized on a sensor chip, and the other (the “analyte”) flowing through a microfluidic system over the chip surface. Binding is measured in real time as a change in the refractive index on the surface. The most common application of SPR is to determine the association/dissociation binding constants for biomolecular interactions, but its versatility allows many other uses, including label-free immunoassays and concentration determination of biologics.
The study was carried out using an up-to-date SPR apparatus, the ProteOn XPR36 Protein Interaction Array system (Bio-Rad Laboratories). This system is mainly characterized by the presence of six flow channels which can uniformly immobilize up to six ligands on parallel strips of the same sensor surface.
In addition, SPR analysis was performed for anti-EPO (C4) to evaluate the binding kinetics parameters.
Background: In SPR one partner is held on a chip, and binding of the other changes the refractive index at the surface.

Data set [1] concerns primary anaplastic astrocytoma cells. The experiment in a line: MTT cell viability assay. In kind it is cell-based, human. The settings on record: 96 hours, anti-EPO (C4) 6 μg/ml, TMZ 100 μM, FTY720 100 nM. The source says: D. Primary anaplastic astrocytoma cancer stem cells isolated from tumor biopsy of a cohort of patients affected by high grade glioma, in particular, anaplastic astrocytoma (WHO, grade III);

The next data set has as its system cancer cells. The experiment in a line: Neutralizing anti-EPO bioassay (MTT). In kind it is cell-based. The conditions noted are these: nineteen anti-EPO hybridoma culture supernatants compared; 96 h. As for the experimental part: The cell-based assay was used to measure the capacity of each clone to neutralize EPO signaling. […] Optical density values (O.D.) were recorded, and neutralizing activity of each clone was expressed as percentage of viability of cells treated with clones respect to control condition, BM (FIG. 1A).The best n=3 final clones were selected and specific monoclonal antibodies were separated and purified in PBS at PH7.4 sterilized by membrane filtration (produced in culture supernatant and purified by Protein A/G). Furthermore, anti-EPO monoclonal antibodies were sequenced by the following protocol: total RNA was extracted separately from several batches of cultured hybridoma cells, cDNA were then synthesized by reverse transcription using oligo-dT primers, and VH and VL were finally amplified by PCR. VH and VL fragments, respectively amplified by IgG degenerate primers and Kappa-specific primers, are represented by gel electrophoresis (FIG. 1B), confirming that isotypes were IgG Kappa.

The test system of another data set is HOC84 stem cells. The experiment in a line: Gene expression by RealTime PCR. In kind it is cell-based, human. The settings on record: 72 h. As for the experimental part: The analysis was performed by the assessment of gene expression by RealTime PCR on genes related to apoptosis (FIG. 23A), proliferation (FIG. 23B), angiogenesis (FIG. 23C), and inflammation (FIG. 23D). HOC84 stem cells (2×10^5) were seeded into 25 cm2 collagen-coated culture flasks. […] At the end, total RNA was extracted following TRI-Reagent protocol and quantified with NanoDrop 1000 Spectro-photometer (Thermo Fisher Scientific). Reverse transcriptase reaction was executed using TranScriba Kit (A&A Biotechnology), loading 1 μg of RNA (A260/A280>1.8), according to manufacturer's instructions. qRT-PCR was performed using StepOnePlus™ (Thermo Fisher Scientific), 1 μg of cDNA, forward and reverse primers (250 nM each) Titan HotTaq EvaGreen® qPCR Mix (Bioatlas). Data were normalized to 18S expression, used as endogenous control. Relative gene expression was determined using the 2−ΔΔCt method (FIG. 23).

The test system of another data set is human healthy astrocytes. The experiment in a line: MTT cell viability assay. In kind it is cell-based. The settings on record: 96 hours. The source says:
L. Human healthy Astrocytes is a commercial cell line of human healthy astrocytes

The subject of the next data set is PC-3. The experiment in a line: MTT cell viability assay. The settings on record: 96 hours, 6 μg/ml. It counts as cell-based, human. The source says: (§1) F. Prostate cancer cell lines (PC-3 and LNCAP); human prostate cancer cells used in cancer research and drug development. […] have been reported to be overexpressed and associated with poor prognosis and reduced survival in prostate cancer patients, and are considered predictive markers of aggressive prostate cancer behavior.

For the next data set, the system named is LNCAP. The experiment in a line: MTT cell viability assay. In kind it is cell-based, human. The conditions noted are these: 96 hours, 6 μg/ml.
Description: as §1

A further data set deals with GBM-ECs. The experiment in a line: Tube formation assay on Matrigel. In kind it is cell-based, human. The settings on record: 48 h. As for the experimental part: GBM-ECs (1×10^4) were plated on 10 μL of Matrigel in BM, as a Control Condition (CTR, FIG. 8A) or in media containing the anti-EPO (C4) (FIG. 8B), TMZ (FIG. 8C), FTY720 (FIG. 8D), and anti-EPO (C4)+TMZ+FTY720 (FIG. 8E) treatments, as reported above. GBM-ECs were incubated at 37° C., 5% C02, 5% 02. After 48 h, tube-like structure formation was evaluated by phase-contrast microscopy.

B1: anti-EPO (C4): isolated anti-Erythropoietin monoclonal antibody, VL SEQ ID NO:6, VH SEQ ID NO:14, hybridoma DSM ACC 3370 (antibody, listed as Homo sapiens, V domains shown)
VH: EVKLQESGGGLVQPGGSLKLSCAASGFTFSTYTMSWVRQTPEKRLEWVAYISNGGDRTYYPDTVKGRFTISRDDAKNTLFLQMSSLKSEDTAMYYCARHNITTVPFTMDYWGQGTSVTVSS
VL: DIVLTQSPASLAVSLGQRATISCRASESVDYYGTGLMQWYQQRPGQPPKLLIYGASNVGSGVPARFSGSGSGTDFSLNIHPVEGDDIAMYFCQQTRKVPSTFGGGTKLEIK
modifications: VH amino acid sequence; VL amino acid sequence
B1: the “cells initially seeded dead” value was about 79% in the data set on GBM-CSC cell line and about 66% in [1]. Besides, the “cells initially plated dead” value in the data set on SHSY-5Y is on record as 62%; with HOC84 it was 68%; in the data set on A549 it was 63%; with PC-3 it was 71%; in the data set with LNCAP it was 74%. For the same molecule, the kd with murine EPO (mEPO) turned out to be 0.000669 s⁻¹. In the data set with murine EPO (mEPO) (rounded), this molecule registered a Kd of 1000 nM. For the same molecule, in the data set on cancer cells, the “neutralizing activity (inhibition of cancer cell viability)” value is “higher neutralizing activity”. Also, the “expression of genes related to angiogenesis” value in the data set with HOC84 stem cells was “significantly inhibits proliferation and angiogenesis”. The “expression of genes related to apoptosis” value in the data set with HOC84 stem cells was “increases apotosis and inflammation”. Moreover, the “expression of genes related to inflammation” value in the data set on HOC84 stem cells is “higher expressed”. In addition, the “effect on human healthy astrocyte viability” value in the data set on human healthy astrocytes was “did not affected human healthy astrocyte viability”. Moreover, the “decrease of total length of formed tubes” value in the data set on GBM-ECs stood at 70%. In addition, the “formation of tubular-like structures” value in the data set with GBM-ECs (phase-contrast microscopy) is “able to block the formation of tubular-like structures”.
